# According to patent publication US20140056903A1 (Regeneron, published 2014):
# Substitutions are numbered along the chain they refer to. Names may count otherwise.
# B1: H4H2291S (antibody, human IgG4, V domains shown)
# VH: EVQLVESGGGLVQPGESLRLSCAASGFTFSNYAMSWVRQAPGKGLEWVSVISGSGGSTYYADSVKGRFTMSRDNSKNTLYLQMNSLRAEDTAVYYCAKPPSRAARYFNYGMDVWGQGTTVTVSS
# VL: AIRMTQSPSSVSASVGDRVTITCRASQGISSWLAWYQQKPGKAPKLLIYAASSLQSGVPSRFSGSGSGTDFTLTISSLQPEDFATYYCQQANSFPFTFGGGTKVEIK
# notes: human IgG4 Fc (H4H)
# B2: H4H2295S (antibody, human IgG4, V domains shown)
# VH: EVQLVESGGGLVQAGGSLRLSCVASGFTFSSYAMSWVRQAPGKGLEWVSAISGSGGSTYSADSVKGRFTISRDNSKNTLYLQMNSLRAEDTAVYYCTKPSSYSSSNFYYGMDVWGQGTTVTVSS
# VL: B1 VL with A1D, R3Q, A50T, G68R, A91T, F94L, F96L, G100P
# notes: human IgG4 Fc (H4H)
# B3: H4H2296S (antibody, human IgG4, V domains shown)
# VH: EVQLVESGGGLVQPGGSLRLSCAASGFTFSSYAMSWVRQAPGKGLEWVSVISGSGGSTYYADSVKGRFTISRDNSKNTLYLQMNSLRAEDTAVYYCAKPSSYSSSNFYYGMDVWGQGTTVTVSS
# VL: B1 VL with A1D, R3V, Q55R, S76T, Q90H, A91T, G100P
# notes: human IgG4 Fc (H4H)
# B4: H4H2364S (antibody, human IgG4, V domains shown)
# VH: B2 VH with V12E, A14P, V23A, A33V, A40V, A50V, S60Y, T97A, Y108H
# VL: B1 VL with A1D, R3Q, S9Y, K42R, Q90K, A91T, G100P
# notes: human IgG4 Fc (H4H)
# B5: H4H2341S (antibody, human IgG4, V domains shown)
# VH: EVQLVESGAEVKKSGSSVKVSCKASGGTFSRYAISWVRQAPGQGLEWMGGIIPLFGTLNYAQKFQGRVTLTTDESTSTAYMELSSLRSEDTAVYYCAVFYYGSGSYRNWFDPWGQGTLVTVSS
# VL: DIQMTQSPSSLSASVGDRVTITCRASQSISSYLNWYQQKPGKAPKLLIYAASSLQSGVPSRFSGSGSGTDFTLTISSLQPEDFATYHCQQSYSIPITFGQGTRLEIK
# notes: human IgG4 Fc (H4H)
# B6: H4H2345S (antibody, human IgG4, V domains shown)
# VH: EVQLVESGGGLVRPGRSLRLSCAASGFTFDNYAMHWVRQVPGKGLEWVSGITWNSVSLGYADSVKGRFTISRDNAQNSLYLQMNSLRTVDTALYYCAKDRWGGSYYFDFWGQGTLVTVSS
# VL: DIVMTQSPSSLSASVGDRVTITCRASQGISNYLAWYQQKPGKVPKLLIYSASTLQSGVPSRFSGSGSGTDFTLTISNLQPEDFATFFCQKYNSAPTFGGGTKVEIK
# notes: human IgG4 Fc (H4H)
# B7: H4H2355S (antibody, human IgG4, V domains shown)
# VH: EVQLVESGGGLVQPGGSLRLSCAASGFTFSSYAMSWVRQVPGKGLEWVSAISGSGDNTYNAESVKGRFTISRDNSKNMLYLQMNSLRAEDTAVYYCAKTKFSSSLLFDYWGQGTLVTVSS
# VL: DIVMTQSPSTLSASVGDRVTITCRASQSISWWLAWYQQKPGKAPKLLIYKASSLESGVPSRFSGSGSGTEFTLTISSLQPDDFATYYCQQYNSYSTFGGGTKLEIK
# notes: human IgG4 Fc (H4H)
# B8: H4H2344S (antibody, human IgG4, V domains shown)
# VH: EVQLVESGGGVVQPGRSLRLSCAASGFSFSDYVMHWVRQAPGKGLEWVASIWFDGSNEFYADSVKGRFTISRDNSKNTLFLQMNSLRAEDTAVYYCAKKGVLVATSAFDIWGQGTMVTVSS
# VL: DIQMTQSPSSLSASVGDRVTITCRASQSINNYLNWYHQKPGKAPKLLIYAASSLQSGVPSRFSGSGSGTDYTLTISSLQPEDFGNYYCQQSYRTSMYTFGQGTKVEIK
# notes: human IgG4 Fc (H4H)
# B9: H4H2346S (antibody, human IgG4, V domains shown)
# VH: B8 VH with E1Q
# VL: B8 VL with D1E, Q3V
# notes: human IgG4 Fc (H4H)
# B10: H4H2354S (antibody, human IgG4, V domains shown)
# VH: B8 VH with E1Q
# VL: B8 VL with M4L
# notes: human IgG4 Fc (H4H); also called H4H2354S-1
# B11: H4H2293P (antibody, human IgG4, V domains shown)
# VH: B8 VH with E1Q, F59L, D109H
# VL: B8 VL with D1A, S28N, K45N, R93S, V105L
# notes: human IgG4 Fc (H4H)
# B12: H4H2236N3 (antibody, human IgG4, V domains shown)
# VH: EVQLLESGGNLVQPGGSLRLSCAASGFTFSSYAMTWVRQAPGKGLEWVSTISGSGTSTYYADSVKGRFTISRDNSRDTVFLQMNSLRAEDTAVYYCSKPSALRFLHWLAMDVWGQGTLVTVSS
# VL: DIQMTQSPSSLSAFVGDRVTITCRASQDIRNYLDWFQQKPGKAPKSLIYAASNLQSGVPSRFGGSGSGTDFTLTINSLQPEDFVTYYCQQYNSYPPTFGGGTKVEIK
# notes: human IgG4 Fc (H4H)
# How the values were obtained:
# [1] = target: T1, human GFRα3 expressed with a C-terminal myc-myc-hexahistidine tag (human, UniProt O60609 32-374, biotinylated (sites not given) in ELISA format 2 and in the Octet cross-competition; not in SPR); assay: Octet RED384; 25 µg/mL first antibody on streptavidin-captured biotin-hGFRα3-mmH
# T1 construct: also called hGFRα3-mmh; hGFRα3-mmH
# Procedure: (§1) A cross-competition assay was conducted to assess the ability of select antibodies to compete with one another for binding to human GFRα3 using an Octet RED384 biosensor (Fortebio Inc.). The entire experiment was performed at 25° C. with the flow rate of 1000 rpm in Octet HBST buffer (0.01 M HEPES pH7.4, 0.15M NaCl, 3 mM EDTA, 0.05% v/v Surfactant P20, 0.1 mg/mL BSA). To assess whether 2 antibodies were able to compete with one another for binding to their respective epitopes on biotinylated recombinant human GFRα3 expressed with a C-terminal myc-myc-hexahistidine tag (biotin-hGFRα3-mmH; SEQ ID:370), around ˜1.2 nm of biotin-hGFRα3-mmH was first captured onto streptavidin-coated Octet sensor tips (Fortebio Inc, #18-5019) by submerging the tips for 1 minute into a 10 μg/mL solution of biotin-hGFRα3-mmH. The antigen coated sensor tips were then placed into wells containing 25 μg/mL solution of a first anti-GFRα3 monoclonal antibody for 4 minutes to saturate the biotin-hGFRα3-mmH surface. The sensor tips were then subsequently dipped into wells containing 25 μ/mL solution of a second anti-GFRα3 monoclonal antibody. The sensor tips were washed in Octet HBST buffer in between every step of the experiment. The real-time binding response was monitored during the course of the experiment and the binding response at the end of every step was recorded as shown in FIG. 9. The response of mAb-2 binding to biotin-hGFRα3-mmH pre-complexed with the first antibody was compared and competitive/non-competitive behavior of different anti-GFRα3 monoclonal antibodies was determined.
# [2] = target: T1, human GFRα3 expressed with a C-terminal …; assay: Octet cross-competition; biotin-hGFRα3-mmH pre-saturated with first antibody H4H2243N2
# Procedure: as §1
# [3] = target: T1, human GFRα3 expressed with a C-terminal …; assay: Octet cross-competition; biotin-hGFRα3-mmH pre-saturated with first antibody H4H2350P
# Procedure: as §1
# [4] = target: T1, human GFRα3 expressed with a C-terminal …; assay: Octet cross-competition; biotin-hGFRα3-mmH pre-saturated with first antibody H4H2342P
# Procedure: as §1
# [5] = target: T1, human GFRα3 expressed with a C-terminal …; assay: Octet cross-competition; biotin-hGFRα3-mmH pre-saturated with first antibody H4H2291S
# Procedure: as §1
# [6] = target: T1, human GFRα3 expressed with a C-terminal …; assay: Octet cross-competition; biotin-hGFRα3-mmH pre-saturated with first antibody H4H2295S
# Procedure: as §1
# [7] = target: T1, human GFRα3 expressed with a C-terminal …; assay: Octet cross-competition; biotin-hGFRα3-mmH pre-saturated with first antibody H4H2355S
# Procedure: as §1
# [8] = target: T1, human GFRα3 expressed with a C-terminal …; assay: Octet cross-competition; biotin-hGFRα3-mmH pre-saturated with first antibody H4H2236N3
# Procedure: as §1
# [9] = target: T1, human GFRα3 expressed with a C-terminal …; assay: blocking ELISA 2, biotin-hGFRα3-mmH to coated hARTEMIN-mmH + hRET-10His
# Procedure: The equilibrated sample solutions were then transferred to the hARTEMIN-mmH-coated plate. […] Absorbance was recorded at 450 nm on a Victor X5 plate reader (Perkin Elmer) to determine the amount of free hGFRα3-hFc in the pre-equilibrated hGFRα3-hFc-antibody solutions that was able to bind to the plate coated with hARTEMIN-mmH. IC₅₀ values, defined as the concentration of antibody required to reduce the signal from a constant concentration of hGFRα3-hFc by 50%, were calculated from the data using Prism software from GraphPad. The absorbance measured at the constant amount of 120 pM hGFRα3-hFc in the absence of anti-GFRα3 antibody is defined as 0% blocking and the absorbance with no added hGFRα3-hFc is defined as 100% blocking. The observed absorbance in the wells containing the highest antibody concentration was used to calculate the maximum blocking percent shown in the table.
# In the second ELISA format, the plates, samples and data were processed similarly as for the first format except both hARTEMIN-mmH and human RET with a C-terminal 10 histidine tag (hRET-10His; R&D Systems, #1168-CR/CF) were coated for the blocking ELISA experiment. The 96-well microtiter plates were coated with a mixture of 1.2 ug/ml hARTEMIN-mmH and 6.9 ug/ml hRET-10His proteins in PBS overnight at 4° C. and then blocked with a solution of 0.5% (w/v) BSA. A constant amount of biotinylated human GFRα3 with a C-terminal myc-myc-hexahistidine tag (biotin-hGFRα3-mmH; SEQ ID:370) at 1 nM was pre-mixed with varied amounts of anti-GFRα3 antibodies, ranging from 0 to ˜100 nM in serial dilutions, followed by a 1 hour incubation at RT to allow antibody-biotin-hGFRα3-mmH binding to reach equilibrium. The equilibrated samples were then transferred to the coated plate. After 1 hour of binding, the plate was washed, then the bound biotin-hGFRα3-mmH was detected using HRP conjugated streptavidin (Pierce, #N200), and colorimetric signals were developed using TMB HRP substrates.
Binder,Amount of Antibody 1 bound (nm) [1],binding response of second antibody (nm) [2],binding response of second antibody (nm) [3],binding response of second antibody (nm) [4],binding response of second antibody (nm) [5],binding response of second antibody (nm) [6],binding response of second antibody (nm) [7],binding response of second antibody (nm) [8],% max blocking [9],IC50 [9]
B1,2.89 nm,0.52 nm,2.57 nm,0.45 nm,0.05 nm,0.2 nm,0.31 nm,0.06 nm,–,–
B2,2.83 nm,0.39 nm,2.05 nm,0.31 nm,0 nm,0.05 nm,0.2 nm,0.03 nm,–,–
B3,2.88 nm,0.33 nm,2.1 nm,0.28 nm,-0.01 nm,0.07 nm,0.18 nm,0.02 nm,–,–
B4,–,–,–,–,–,–,–,–,100%,1.45 nM
B5,–,–,–,–,–,–,–,–,98%,1.62 nM
B6,–,–,–,–,–,–,–,–,75%,14.6 nM
B7,2.73 nm,0.24 nm,1.77 nm,0.16 nm,0 nm,0.02 nm,0.07 nm,0 nm,–,–
B8,–,–,–,–,–,–,–,–,100%,0.459 nM
B9,–,–,–,–,–,–,–,–,99%,0.797 nM
B10,–,–,–,–,–,–,–,–,97%,1.32 nM
B11,–,–,–,–,–,–,–,–,95%,7.38 nM
B12,2.64 nm,0.3 nm,1.98 nm,0.2 nm,0.01 nm,0.01 nm,0.18 nm,0 nm,–,–
